Data on 4 molecules can be found in PMC2890305 (Chemical biology & drug design, 2010).

The target in data set [1] is T1, Aminopeptidase N (APN) (Rattus norvegicus, UniProt P15684).
T1 sequence (P15684 33-965 limits assumed): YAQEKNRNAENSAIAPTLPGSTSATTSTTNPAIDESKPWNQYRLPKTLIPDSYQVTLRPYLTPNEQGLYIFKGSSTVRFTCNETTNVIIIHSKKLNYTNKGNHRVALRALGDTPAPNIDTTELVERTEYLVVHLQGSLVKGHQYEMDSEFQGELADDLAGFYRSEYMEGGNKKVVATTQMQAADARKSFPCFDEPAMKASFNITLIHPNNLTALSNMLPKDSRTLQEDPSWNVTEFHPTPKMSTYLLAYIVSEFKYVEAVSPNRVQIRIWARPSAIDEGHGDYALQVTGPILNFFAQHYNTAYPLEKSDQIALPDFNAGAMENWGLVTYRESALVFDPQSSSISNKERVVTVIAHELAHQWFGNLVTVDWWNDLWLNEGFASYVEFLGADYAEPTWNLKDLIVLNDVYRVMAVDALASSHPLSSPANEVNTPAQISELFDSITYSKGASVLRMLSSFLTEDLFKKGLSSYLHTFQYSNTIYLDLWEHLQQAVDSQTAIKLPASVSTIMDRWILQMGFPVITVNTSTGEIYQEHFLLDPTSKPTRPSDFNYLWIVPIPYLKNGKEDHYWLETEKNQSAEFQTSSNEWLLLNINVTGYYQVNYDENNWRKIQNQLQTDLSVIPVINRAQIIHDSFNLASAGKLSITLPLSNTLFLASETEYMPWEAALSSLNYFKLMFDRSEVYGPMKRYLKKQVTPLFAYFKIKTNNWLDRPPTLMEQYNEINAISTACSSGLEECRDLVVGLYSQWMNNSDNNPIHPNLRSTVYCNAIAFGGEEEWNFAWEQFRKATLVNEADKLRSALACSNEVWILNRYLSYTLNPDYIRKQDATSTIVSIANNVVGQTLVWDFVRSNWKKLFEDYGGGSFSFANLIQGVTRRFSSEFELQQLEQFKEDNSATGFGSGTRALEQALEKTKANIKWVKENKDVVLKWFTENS
In words: Inhibition of APN aminopeptidase activity, increasing peptide concentrations. In kind it is biochemical.

For data set [2], the system named is APN from Aeromonas proteolytica. The conditions noted are these: ref [35]; cited from earlier work.
Data set [3] deals with the molecule itself. The data set is described as follows: analytical ultracentrifugation.
Data set [4] addresses T2, CPNGRC (disulfide 1-6 (inferred)).
T2 chain: CPNGRC
In words: enzyme inhibition assay.

The target of data set [5] is T3, CNGRC (disulfide 1-5 (inferred)).
T3 chain: CNGRC
The data set is described as follows: enzyme inhibition assay.

The target of data set [6] is T4, APN (Rattus norvegicus, UniProt P15684).
T4 sequence (P15684 33-965 limits assumed): T1 sequence (P15684 33-965 limits assumed)
In words: Analytical ultracentrifugation, sedimentation equilibrium. In kind it is binding. The conditions noted are these: 3 nM enzyme.

Where a SMILES comes first, the peptide text is derived from it. Bridges are numbered along the chain shown (N, C = ends). Where no end group is shown, it is not given here.

In data set [1], `N=C(N)NCCC[C@@H]1NC(=O)CNC(=O)[C@H](CC(N)=O)NC(=O)[C@@H]2CCCN2C(=O)[C@@H](N)CSSC[C@@H](C(=O)O)NC1=O` [CPNGRC] (H-CPNGRC-OH; disulfide 1-6) registered an IC50 of 10 µM. `CC(C)C[C@H](NC(=O)[C@@H](O)[C@H](N)Cc1ccccc1)C(=O)O` [bestatin]: the “affinity for APN from Aeromonas proteolytica” value in data set [2] is “slow binding nanomolar affinity”.

B1: Aminopeptidase N (APN/CD13) ECD (protein)
chain: T1 sequence (P15684 33-965 limits assumed)
With B1, binding in data set [3] was put at a Kd of 1.6 µM. Moreover, the figures for the half-inhibitory concentration (IC50) in data set [4] and in data set [5] were about 10 µM and about 300 µM, respectively.

B2: APN: Aminopeptidase N isolated from rat renal brush-border membranes, treated with papain to solubilize the extracellular domains (protein, UniProt P15684 33-965, looked up)
extracellular domain: T1 sequence (P15684 33-965 limits assumed)
modifications: extracellular domain papain-solubilized
On to B2, for which the “APN in the dimeric state at assay concentration” value in data set [6] was “less than 0.4%”.

As a reminder, the IC50 is the concentration that inhibits the measured activity by half. Read a low IC50 as greater potency in that assay. One may read the Kd as the constant that tells how readily two partners part at equilibrium. A low value points to higher affinity.
